# Measurements as given in the DeepSol protein solubility set.
# Assay: soluble on expression in E. coli; label from the status in PepcDB or PDB records
row,Sequence,soluble on expression in E. coli
1,ESYWRSRMIDAVTSDEDKVAPVYKLEEICDLLRSSHVSIVKEFSEFILKRLDNKSPIVKQKALRLIKYAVGKSGSEFRREMQRNSVAVRNLFHYKGHPDPLKGDALNKAVRETAHETISAIFSEENG,soluble
2,EVKDYMSQPVVLRENTTVYDAICTIFLEDVSTLFIINEDNDFVGVCSRKDLLRASMIGADIHTVPISVNMTRMPNVTYLEESELVIYAADRMIEKEIDSIPIVRKKDNQKYEVIGRISKTTIAKLLVALYKE,not soluble
3,EVKLVESGGGLVKPGGSLKLSCAASGFTFSRYALSWVRQTADKRLEWVASIVSGGNTYYSGSVKGRFTISRDIARNILYLQMSSLRSEDTAMYYCARAYYGYVGLVHWGQGTLVTVSSAKTTPPSVYPLAPGSAAQTNSMVTLGCLVKGYFPEPVTVTWNSGSLSSGVHTFPAVLQSDLYTLSSSVTVPSSTWPSETVTCNVAHPASSTKVDKKIVPRDCG,soluble
4,EVKLVESGGGLVLPGGSLRLSCATSGFTFTDYYMTWVRQPPGKALEWLGFIGNKANDYTTEYSASVKGRFTISRDDSQSILYLQMSTLRAEDRATYYCATVYGNYPYFDVWGAGTTVAVSSAKTTPPSVYPLAPVCGGTTGSSVTLGCLVKGYFPEPVTLTWNSGSLSSGVHTFPAVLQSGLYTLSSSVTVTSSTWPSQSITCNVAHPASSTKVDKKIEPR,soluble
5,EVMLVESGGGLVKPGGSLKLSCAASGFTFSSYTMSWVRQTPEKRLEWVATISSGGGNTYYPDSVKGRFTISRDIAKNTLYLQMSSLRSEDTALYYCTRLGDYGYAYTMDYWGQGTSVTVSSAKTTPPSVYPLAPGGGGGGGAMVTLGCLVKGYFPEPVTVTWNSGSLSSGVHTFPAVLQSDLYTLSSSVTVPSSPWPSETVTCNVAHPASSTKVDKKIVPRDC,soluble
6,EWALFLDIDGTLVDIAEQPHDVRVAASLPQDLARLADRLGGALALVTGRRVDWIDAHFGPHLFPAAGLHGVERRRASGELDRAGLAPSLNALRKDLGRRTARMPGVLLEDKVAAVALHYRQAPEREPDVRAMMEMALKVMGDGWVLQHGKMVVELRPASANKGTALEAFLTEPPFAGRRPVAIGDDVTDEEMFRVVNACGGLSVRICETEAPTLARARLASPQALRDLVAELGA,not soluble
7,FAKLVRPPVQIYGIEGRYATALYSAASKQNKLEQVEKELLRVGQILKEPKMAASLLNPYVKRSVKVKSLSDMTAKEKFSPLTSNLINLLAENGRLTNTPAVISAFSTMMSVHRGEVPCTVTTASALDETTLTELKTVLKSFLSKGQVLKLEVKIDPSIMGGMIVRIGEKYVDMSAKTKIQKLSRAMREIL,soluble
8,FESGLDLSDAEPDAGEATAYASKDLEEQLRSVSSVDELMTVLYPEYWKMYKCQLRKGGWQHNREQANLNSRTEETIKFAAAHYNTEILKSIDNEWRKTQCMPREVCIDVGKEFGVATNTFFKPPCVSVYRCGGCCNSEGLQCMNTSTSYLSKTLFEITVPLSQGPKPVTISFANHTSCRCMSKLDVYRQVHSIIRRSLPATLPQCQAANKTCPTNYMWNNHICRCLAQEDFMFSSDAGDDSTDGFHDICGPNKELDEETCQCVCRAGLRPASCGPHKELDRNSCQCVCKNKLFPSQCGANREFDENTCQCVCKRTCPRNQPLNPGKCACECTESPQKCLLKGKKFHHQTCSCYRRPCTNRQKACEPGFSYSEEVCRCVPSYWKRPQMS,not soluble
9,FKYIQKIAKTEIKREEVPDVKDIISAKKIKIISGIKEVLESGKYADCEKMASDLLEDADPQEVLSAVLKYALKDELS,not soluble
10,FLDGIDKAQEEHEKYHSNWRAMASDFNLPPVVAKEIVASCDKCQLKGEAMHGQVDCSPGIWQLDCTHLEGKVILVAVHVASGYIEAEVIPAETGQETAYFLLKLAGRWPVKTVHTDNGSNFTSTTVKAACDWAGIKQEDGIPYNPQSQGVIESMNKELKKIIGQVRDQAEHLKTAVQMAVFIHNKKRKGGIGGYSAGERIVDIIATDIQTKELQKQITKIQNFRVYYRDSRDPVWKGPAKLLWKGEGAVVIQDNSDIKVVPRRKAKIIRDYGKQMAGDDCVASRQDED,soluble
11,FLNTISTKDFKQKMADKTTGFVYVGRPTCEDCQAFQPILKKELEKRQPDQKMAYYNTDKASEKSRDDMIALLKKMDIDSVPTMVYLKDGKVASTYAATDEPAKLTNWMNKVSGEVSE,soluble
12,FPDPSFIIDAEGRFLDCLTDPETMLTVDDTDTLVGQTLHEFFPHDTADSLLAAVRAALRTGSFQSVEYKLQVPSDKRWFEARVAPLESRAYDPDTVIFVARDI,not soluble
13,FRVERSQPASQPLTYESGPDEVRAWLEAKAFSPRIVENLGILTGPQLFSLNKEELKKVCGEEGVRVYSQLTMQKAFLEKQQSGSEL,soluble
14,FRYDNTTPKTLRHVALLLEQGIETNDFYSGLHRRELKQTRLEGYILQHFSIIDGCVGVMKLTSELLAEYDVTANESAAFVNSFSDVE,soluble
15,FWGVWASEPPHPVLHASHDAAGWRLRGTKAWCSGASMCTHALVTARVDEQPRLFAVDLREPGVTAGRGGWRNPGMAATDTESVTFDGVPARPVGAPDE,not soluble
16,GAGNYQLAVSTLAKVWKQLHIPDVYDVGAMYFIKTFLHFGVSLLSAGHAWTNPQSFLDNAPLRQTLGKMMPFDGIEPSIASGALQALALTASCYTTGMSVTFFQGEESLGEWTRYQRLGVRERIGLDHLMATAAIPLIFPSVRIGEKFYCDGAVRQLSPLSPALH,not soluble
17,GAHMVTSNVVLVSGEGERFTVDKKIAERSLLLKNYLNDMGDDDDEDDDEIVMPVPNVRSSVLQKVIEWAEHHRDSNFPDEDDDDSRKSAPVDSWDREFLKVDQEMLYEIILAANYLNIKPLLDAGCKVVAEMIRGRSPEEIRRTFNIVNDFTPEEEAAIRRENEWAEDR,soluble
18,GALPSHNKASFTDEEDEFILDVVRKNPTRRTTHTLYDEISHYVPNHTGNSIRHRFRVYLSKRLEYVYEVDKFGKLVRDDDGNLIKTKVLPPSIKRKFSADEDYTLAIAVKKQFYRDLFQIDPDTGRSLITDEDTPTAIARRNMTMDPNHVPGSEPNFAAYRTQSRRGPIAREFFKHFAEEHAAHTENAWRDRFRKFLLAYGIDDYISYYEAEKAQNREPEPMKNLTNRPKRPGVPTPGNYNSAAKR,soluble
19,GAMDPMICLGLEGTAEKTGVGIVTSDGEVLFNKTIMYKPPKQGINPREAADHHAETFPKLIKEAFEVVDKNEIDLIAFSQGPGLGPSLRVTATVARTLSLTLKKPIIGVNHCIAHIEIGKLTTEAEDPLTLYVSGGNTQVIAYVSKKYRVFGETLDIAVGNCLDQFARYVNLPHPGGPYIEELARKGKKLVDLPYTVKGMDIAFSGLLTAAMRAYDAGERLEDICYSLQEYAFSMLTEITERALAHTNKGEVMLVGGVAANNRLREMLKAMCEGQNVDFYVPPKEFCGDNGAMIAWLGLLMHKNGRWMSLDETKIIPNYRTDMVEVNWIKEIKGKKRKIPEHLIGKGAEADIKRDSYLDFDVIIKERVKKGYRDERLDENIRKSRTAREARYLALVKDFGIPAPYIFDVDLDNKRIMMSYINGKLAKDVIEDNLDIAYKIGEIVGKLHKNDVIHNDLTTSNFIFDKDLYIIDFGLGKISNLDEDKAVDLIVFKKAVLSTHHEKFDEIWERFLEGYKSVYDRWEIILELMKDVERRARYVE,soluble
20,GAMEAIYAYEAQGDDEISIDPGDIITVIRGDDGSGWTYGECDGLKGLFPTSYCK,soluble
21,GAMGMNGIDDLLNINDRIKQVQNERNELASKLQNLKQSLASNDTGGGSGGGSDSSDLLQREAILANELNILDNLKTFLNLIKEVKTNLNILELENCYYSLQSLRKKMRNNAAYLKQSFNFQQSISTYVDTLHLELVSTLYKILTNGFWKITENSIQFTPTVEWGKDKVHIEYDTFMDFVAQQYFPKGSLDNQAWFILDMTSADSQEQVRAKLNTIMKEYMNLSRIVSMIKNSIFISGKEISYENEKNILVFSKSSSHGQHCVSTVLTSFEAVCDFMLDGLAFRDRKTLSYELGPLFNTEFTKFVKNNASIILESLDSPLKNLVSVINNKLTRLVAKSEVTNWTHSGKEIQDLLMN,soluble
22,GASKAFYSAGDKLFQPGDDAVASMQTYSVAQFLQPFTLNPAKASSDYLGKWVKVRGVIVDIRRKSGIAGSYYFIVTMRDEQNKTDKRLTFNFGSHNSADVEALSNGSVATIVGQVHQVQDSTIPTLQNPKVVK,soluble
23,GAVGLTIRSNITYSKNEIVDRDEENNYYWYKMQKGHRVNQARGLISLGLFKDYDDIRNSPVQDFDGYKVMPGDIKYKDVNGDGKIDGNDQVAIGATTKPNLIYGFGIAANWKGLDVNLHFQGAGKSTYFIDGSTVHMFKLGDGWGNVLSEMANSNRWISADISGDPATENPNAEYPRLSYGPNSNNYQQSTYWLRNGSYLRLKTVEVGYTLPTQLVNKVHFNTVRIFFVGTNLLTWSAFKLWDPEMGSTDGKRYPLSKNLSLGISVNL,not soluble
24,GDFSWNSSLTYTMNRNKVKRLASGATNPITGEIIDMPELRMAVLGADGYGPRVILREGGTMGDLYVDKGLRTDGNGNIWVDSQTGKVGVQDYAEPKKIGTMNPDFNMGFSNTFSYKGINLGVVLTARVGGLCVSNTQGILDYYGVSKATADARDAGGVWINNGFVDAKSYYQTIGGSTGGLGQYYTYSATNIRLSELNLSYTLPRKWFNNKVGITAGIVGKNLWMIYCKAPFDPEMTPSTTSNFYQGVDYFMQPSTRNIGFNVKFQF,not soluble
25,GEFAQECQNLEVERQRRLERIKQKQSQLQELILQQIAFKNLVQRNRHAEQQASRPPPPNSVIHLPFIIVNTSKKTVIDCSISNDKFEYLFNFDNTFEIHDDIEVLKRMGMACGLESGSCSAEDLKMARSLVPKALEPYVTEMAQGTVGGVFITTA,soluble
26,GEIYDEHDEVEAVQTLDNNTWLVLPNVKAAFFFNKWIKRDLVKSKNMTIQRYLASFENDGLNTQNKLETPWFIAEAIVDSENPEQIRYEIRKKSDVVD,soluble
27,GELFIKELLWMLRHQKDIFNNLARQFQKEVLCPNKCGVMSQTLIWCLKCEKQLHICRKSLDCGERHIEVHRSEDLVLDCLLSWHRASKGLTDYSFYRVWENSSETLIAKGKEPYLTKSMVGPEDAGNYRCVLDTINQGHATVIRYDVTVLPPKHSEENQPP,not soluble
28,GERLTIEDGLYLYETSDLLGVAQLANKVNSEKNGDHVYFIENMYINPTNVCEANCSFCGFKRKPGQEGAYTMDSETLLRYVEERWNDNIREFHIVGGHNTDVPFDYYLDTIRTLKKNFPQVTVKAYTGAEIEFFSRLAGISMKEVLEELIKAGLDTLPGGGAEILTERYRAKMSPDKASTDQWLEAHEIAHGLGLKTHATMLYGSIESNEERLIHMDRVRQLQDKTNGYMVFIPLAMQPRSVKAGLKRRTSAFDDMRTIAISRLMLDNIDHIKAYWINIGVQLTQMALTFGSDDIHGTLIEERISHSVGALTSQGITRDELIHLIKSANKTPVER,not soluble
29,GFPERELPRPGASRPAEKSRPPEAKGAQPADAWKAGRPRSEEDNELNLPNLAAAYSSILRSLGEDPQRQGLLKTPWRAATAMQFFTKGYQETISDVLNDAIFDEDHDEMVIVKDIDMFSMCEHHLVPFVGRVHIGYLPNKQVLGLSKLARIVEIYSRRLQVQERLTKQIAVAITEALQPAGVGVVIEATHMCMVMRGVQKMNSKTVTSTMLGVFREDPKTREEFLTLIRS,soluble
30,GGSVKKGRRSRRCGQCPGCQVPEDCGVCTNCLDKPKFGGRNIKKQCCKMRKCQNLQWMPSKAYLQKQAKAVK,soluble
